Assays:
Assay in all cases: SEC; 200 uL of purified protein on a Superdex 200 10/30 column in TBS with 5 mM EDTA, pH 7.4, 0.3 mL/min; elution at 280 nm compared with molecular weight standards (12.4 to 443 kDa) and with refolded reference preparations
[1] = molecular target: recombinant fragment of human SP-A (rfhSP-A) expressed and isolated as a soluble protein using NT* (human)
[2] = molecular target: recombinant fragment of human SP-D (rfhSP-D) expressed and isolated as a soluble protein using NT* (human)
[3] = molecular target: rfhSP-A refolded using the previous refolding protocol using NTwt (human)
[4] = molecular target: rfhSP-D expressed and purified without an expression tag using the standard rfhSP-D purification protocol (human)

“recombinant fragment of human SP-A (rfhSP-A) expressed and isolated as a soluble protein using NT* (domain or fragment)” gave a percent of the protein eluting at the volume of the trimer [1] of 24% and a stoichiometry N [1] of 3.

“recombinant fragment of human SP-D (rfhSP-D) expressed and isolated as a soluble protein using NT* (domain or fragment)” gave a percent of the protein eluting at the volume of the trimer [2] of 88.5% and a stoichiometry N [2] of 3.

Substance “rfhSP-A refolded using the previous refolding protocol using NTwt (domain or fragment)” has a stoichiometry N [3] of 3.

For “rfhSP-D expressed and purified without an expression tag using the standard rfhSP-D purification protocol (domain or fragment)”, the stoichiometry N [4] was 3.

— article PMC7422833
